Assays:
[1] = molecular target: acetylcholine receptor; assay: SPR, acetylcholine receptor on CM5 chip, peptide 10 µM
[2] = molecular target: acetylcholine receptor; assay: SPR, AchR on CM5 chip, peptide 10 µM
[3] = molecular target: acetylcholine receptor; assay: SPR, acetylcholine receptor on CM5 chip, peptide at 10 uM

| Binder | Binding affinity (RU) [2] [RU] | other results |
| --- | --- | --- |
| KQFCKK [6mer-2-538] |  | Binding affinity (RU) [1]: 125 RU |
| RKAPHR [6mer-1-1147] | 35 |  |
| KKETPR [6mer-1-1142] | 24 |  |
| RRDCKK [6mer-1-1145] | 40 |  |
| KKCMGR [6mer-1-1144] | 25 |  |
| RRKAER [6mer-1-1132] | 31 |  |
| KLFCRR [6mer-2-535] |  | Binding affinity (RU) [1]: 133 RU |
| KRATMK [6mer-1-1140] | 43 |  |
| KRKWWR [6mer-1-1150] | 34 |  |
| RRAWPR [6mer-1-1159] | 39 |  |
| RRCSHR [6mer-1-1148] | 31 |  |
| KKPNIK [6mer-1-1133] | 24 |  |
| RKPMMK [6mer-1-1158] | 33 |  |
| KRYTVR [6mer-1-1156] | 37 |  |
| KRHWVK [6mer-1-1161] | 40 |  |
| KVLCKR [6mer-2-537] |  | Binding affinity (RU) [1]: 153 RU |
| RKCAFK [6mer-1-1163] | 21 |  |
| KKMMPK [6mer-1-1146] | 34 |  |
| RQIYRR [6mer-2-542] |  | Binding affinity (RU) [1]: 148 RU |
| KRNMHK [6mer-1-1141] | 40 |  |
| RKMTPK [6mer-1-1149] | 30 |  |
| KRGYCR [6mer-1-600] |  | Binding affinity (RU) [3]: 139 RU |
| RKESVR [6mer-1-1157] | 36 |  |

| Binder | Binding affinity (RU) [2] [RU] | other results |
| --- | --- | --- |
| KRMSWK [6mer-1-1134] | 22 |  |
| KKHTER [6mer-1-1135] | 26 |  |
| KLYCRK [6mer-2-545] |  | Binding affinity (RU) [1]: 125 RU |
| KRHEFK [6mer-1-1143] | 32 |  |
| KKKEAK [6mer-1-1151] | 34 |  |
| KKCDHR [6mer-1-1162] | 41 |  |
| RRDWAK [6mer-1-1160] | 29 |  |
| KKIEIK [6mer-1-1136] | 34 |  |
| RKCEKR [6mer-1-1154] | 41 |  |
| KVIQKR [6mer-2-544] |  | Binding affinity (RU) [1]: 147 RU |
| KKMENR [6mer-1-1139] | 36 |  |
| KKHHAK [6mer-1-1164] | 41 |  |
| RKHNKK [6mer-1-1153] | 23 |  |
| KRLTRR [6mer-2-540] |  | Binding affinity (RU) [1]: 142 RU |
| KWYTKK [6mer-2-539] |  | Binding affinity (RU) [1]: 127 RU |
| RRQYRR [6mer-2-543] |  | Binding affinity (RU) [1]: 144 RU |
| KGQCRK [6mer-2-541] |  | Binding affinity (RU) [1]: 126 RU |
| KRDCFR [6mer-1-1138] | 21 |  |
| RWQRKK [6mer-2-536] |  | Binding affinity (RU) [1]: 125 RU |
| RKYKEK [6mer-1-1152] | 23 |  |
| KRFTDK [6mer-1-1137] | 33 |  |
| RKKEKR [6mer-1-1155] | 28 |  |

The next lines start with results.

| Binding affinity (RU) [2] [RU] | Binder | other results |
| --- | --- | --- |
| 33 | KKPTNK [6mer-1-1193] |  |
| 21 | RRHTMR [6mer-1-1177] |  |
| 35 | KKTCHR [6mer-1-1182] |  |
| 40 | KRMTPR [6mer-1-1179] |  |
| 23 | RRFNFR [6mer-1-1172] |  |
| 29 | RRATWR [6mer-1-1165] |  |
| 21 | KKADHK [6mer-1-1176] |  |
| 37 | KKNNAK [6mer-1-1186] |  |
| 22 | KKEEKR [6mer-1-1166] |  |
| 32 | RKMDIR [6mer-1-1169] |  |
| 26 | RRHAHK [6mer-1-1187] |  |
| 30 | RKDAIR [6mer-1-1174] |  |
| 40 | KKCHWR [6mer-1-1189] |  |
| 23 | RKTWEK [6mer-1-1175] |  |
| 21 | KRPMAK [6mer-1-1197] |  |
| 36 | RKDDDR [6mer-1-1192] |  |
| 29 | KKCMKR [6mer-1-1190] |  |

| Binding affinity (RU) [2] [RU] | Binder | other results |
| --- | --- | --- |
| 26 | KKIPMK [6mer-1-1173] |  |
| 40 | KKEKFR [6mer-1-1168] |  |
| 30 | RRDTVK [6mer-1-1184] |  |
| 35 | RKIHNK [6mer-1-1183] |  |
| 39 | RKYTKK [6mer-1-1191] |  |
| 21 | RRMDAK [6mer-1-1181] |  |
| 42 | KRHMMK [6mer-1-1167] |  |
| 25 | KRDEDK [6mer-1-1195] |  |
| 22 | KKTHAK [6mer-1-1194] |  |
| 41 | RRMNER [6mer-1-1188] |  |
| 25 | KKTTGR [6mer-1-1196] |  |
| 29 | KKEMMK [6mer-1-1185] |  |
| 40 | RKIAFK [6mer-1-1171] |  |
| 34 | KRPPPK [6mer-1-1180] |  |
| 25 | KKYNPK [6mer-1-1170] |  |
| 29 | RKKMAK [6mer-1-1178] |  |

Reference: US20250011363A1, “OPTIMIZED SHORTENED PEPTIDE THAT BINDS TO ACETYLCHOLINE RECEPTOR, AND USE THEREOF” (SKINMED CO., LTD., priority 2021, published 2025)
